Measured values taken from article doi:10.1101/2023.11.02.23297943 (medRxiv, 2023).
Where a chain is given by its changes, count along the chain named.

B1: mitochondrial single-stranded DNA-binding protein 1 (SSBP1), wild-type recombinant protein (natural protein, human, UniProt Q04837 17-148, looked up)
chain: ESETTTSLVLERSLNRVHLLGRVGQDPVLRQVEGKNPVTIFSLATNEMWRSGDSEVYQLGDVSQKTTWHRISVFRPGLRDVAYQYVKKGSRIYLEGKIDYGEYMDKNNVRRQATTIIADNIIFLSDQTKEKE
B2: SSBP1 p.Arg91Gln mutant, recombinant protein (natural protein, human, UniProt Q04837 17-148, looked up)
chain: B1 chain with R75Q

Molecular target: the molecule itself
Assay: cross-linking

Protein | binding result | percent of dimers formed, compared to wild-type | percent of tetramers formed, compared to wild-type | percent of trimers formed, compared to wild-type
B1 | binds |  |  | 
B2 |  | 37.4 % of wild-type | 20.5 % of wild-type | 12.7 % of wild-type
